Source: patent publication US20150056189A1 (Daiichi Sankyo, published 2015)
Numbering of substitutions follows the chain as printed. In names and notes the source's numbering stands. Blank lines part the entries; values can stand above or below the binder they belong to.

Columns and labels:
[1] = biological target: T1, human Siglec-15 V-set domain (human, UniProt Q6ZMC9 39-165); test: SPR, Biacore T200; antibody captured via anti-human IgG on CM5 chip, antigen as analyte, 1:1 binding model
T1 construct: range 39-165; Purified to a single 14 kDa band; Used as the analyte in SPR; also called hSiglec-15 (39-165) V-set domain; human Siglec-15 protein
T1 sequence (looked up): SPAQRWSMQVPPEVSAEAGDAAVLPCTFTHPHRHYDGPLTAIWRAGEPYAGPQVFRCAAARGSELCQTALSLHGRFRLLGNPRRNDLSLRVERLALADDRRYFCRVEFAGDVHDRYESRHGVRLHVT
Method: (§1) As a running buffer, HBS-EP+ (10 mM HEPES pH 7.4, 0.15 M NaCl, 3 mM EDTA, 0.05% surfactant P20) was used. On the chip having the antibody bound thereto, a dilution series of an antigen solution (0.003 to 7 nM) was added at a flow rate of 90 μL/min for 233 seconds, and subsequently, the dissociation phase was monitored for 2000 to 3600 seconds. As a regeneration solution, 3 M MgCl₂ was added at a flow rate of 10 μL/min for 30 seconds. In the analysis of data, a 1:1 binding model of analysis software (Biacore T200 Evaluation software, version 1.0) was used, and an association rate constant (kon), a dissociation rate constant (koff), and a dissociation constant (KD; KD=koff/kon) were calculated.

[2] = biological target: T1, human Siglec-15 V-set domain; test: SPR, Biacore T200; ratio of KD values against K3-1115
Method: as §1

Kd [1]: 0.26 nM
B1: K3-1115 antibody (antibody, human IgG2, kappa, V domains shown)
VH: EVQLVESGGGLVQPGGSLRLSCAASGFNFNDYFMNWVRQAPGKGLEWVAQIRNKIYTYATFYAASVKGRFTISRDNAKNSLYLQMNSLRAEDTAVYYCARSLTGGDYFDYWGQGTLVTVSS
VL: EILMTQSPATLSLSPGERATLSCRASQSVTISGYSFIHWYQQKPGQAPRLLIYRASNLASGIPARFSGSGSGTDFTLTISSLEPEDFALYYCQQSRKSPWTFGQGTKVEIKR
notes: Humanized form of the rat antibody #32A1; Full-length IgG made in FreeStyle 293F cells; Used as the control antibody; In SPR it was captured through an anti-human IgG antibody; also called h#32A1-H1-1/L2-15

Kd [1]: 0.0041 nM
fold enhancement of affinity compared with K3-1115 [2]: ~60 times
B2: K3-1115/T103E antibody (antibody, human IgG2, kappa, V domains shown)
VH: B1 VH with T103E
VL: B1 VL
notes: Full-length IgG made in FreeStyle 293F cells
